# Data published in the supplement of paper PMC12042874.
# ± gives the uncertainty stated by the source.
# Experiment: amyloid nucleation score (Sup35N fusion, yeast selection) (log enrichment); library NNK1; higher = more nucleation; inactive = no reads after selection
# Summary of the method: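 Three technical output replicates were used for random libraries. Psi-negative yeast expressing peptides of 20 random codons fused to Sup35N were induced with 100 μM copper sulfate for 24 hours and grown 7 days at 30°C on medium lacking adenine and uracil, and input and output plasmid inserts were Illumina-sequenced, excluding sequences with under 100 input reads. The nucleation score is the DiMSum log enrichment of output over input reads, centred on the mode score of non-aggregating sequences.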
row,Substance,amyloid nucleation score
1,LRIDFGDATSVGRRRFMCTV,-0.199 ± 1.5
2,LRKGTVRLSSFEKWYMVRTG,-0.701 ± 0.7
3,LRKMLMDE,inactive
4,LRLENAQLSFTFEYWILYG,-0.475 ± 1.7
5,LRLIV,0.113 ± 0.89
6,LRLNDSSLRIPEAA,-0.107 ± 0.44
7,LRMNLSRKPANFCFKCIIGK,-0.348 ± 0.5
8,LRNSHNVGEQFCISVRDSLG,0.007 ± 0.69
9,LRNVYLSGKFVYRGELNCET,0.95 ± 0.31
10,LRRGMQHAFADSENFVGSHV,-0.168 ± 1.3
11,LRRPVRSTLNGMRMSQHTRR,-0.164 ± 0.66
12,LRSFW,inactive
13,LRSKCECNTRGSCAWWCSDA,1.1 ± 0.9
14,LRSMCSCHVRPIYPFCGHY,0.242 ± 0.81
15,LRTKSLWSF,-0.515 ± 0.59
16,LRVNGEKIKASLPFEGD,0.197 ± 0.51
17,LRVVYPGPSYAGASDLSSMR,-0.926 ± 0.63
18,LSCDVQWLCLESNCE,3.96 ± 0.07
19,LSDWYNLRRWRTVTWAQQLH,-0.4 ± 1.3
20,LSEDVHRTVVRYWMKSRR,1.74 ± 0.31
21,LSEWNPSLVCMERTLHCS,0.493 ± 0.25
22,LSFAKGSVFITGDCISGTVD,-1.49 ± 1.7
23,LSFETRRWMYYIS,0.446 ± 0.24
24,LSFIACPYIVRVYAFNPRTG,6.16 ± 0.071
25,LSFMMRGSIHWPLTTLRACS,1.05 ± 0.6

row,Substance,amyloid nucleation score
1,LSGDIFRNHMNRFYL,-0.071 ± 0.27
2,LSGFKMFIGNYITVV,-0.779 ± 0.78
3,LSHGSIQMVYPELR,-0.829 ± 1.6
4,LSKKFWRFVWARLSEELIER,0.811 ± 0.51
5,LSLDRNVATHKGSYPEWDNF,0.752 ± 0.23
6,LSLILFVCRIYTYSCSHRAL,0 ± 0.36
7,LSMKNQDTCTFTCVLSHLSL,1.9 ± 0.23
8,LSMPGTTCIFYYRLFLVLGE,-0.043 ± 0.31
9,LSPWSKTSIYCNLLPCIVSR,0.571 ± 0.3
10,LSRHGKVKCKLLATGGLT,0.184 ± 0.45
11,LSSIATRKHELLNFPV,0.294 ± 0.63
12,LSSTSV,0.425 ± 0.44
13,LSTLQQLGKLLNTVWDDLAQ,0.048 ± 0.9
14,LSVIIII,4.96 ± 0.051
15,LSWVQSLKACNI,1.45 ± 0.4
16,LSWYPCWVARSTMALDGYGV,-0.776 ± 0.55
17,LTKASHVRLNNVGV,0.034 ± 0.6
18,LTLVNASSSRYEMSLFFQSI,2.53 ± 0.12
19,LTNATFQLWLLCCDGPLRDM,5.87 ± 0.062
20,LTQLYLVTSSTWVNYSYLKW,0.742 ± 0.58
21,LTSCLLPFDPLSNDNYKGVW,1.78 ± 0.65
22,LTVIVFIMEATIDYYGGRCG,0.959 ± 0.92
23,LTVMMLGFGHVQCMS,-0.003 ± 0.26
24,LTYLNMALVCRFFYVFRHDW,0.799 ± 0.57
25,LVCFHQRVKIVRYCRTGTLT,-0.095 ± 0.61

row,Substance,amyloid nucleation score
1,LVCSIMWNGVRHAPVRCKPT,-0.382 ± 0.47
2,LVCVSQVYGALDTCGPVSMM,0.379 ± 0.54
3,LVELNIGTTLCWQMRLRNVG,-0.037 ± 1.7
4,LVFANSHGFCGKSSLLRVGD,inactive
5,LVFFCNM,7.824 ± 0.06
6,LVFSRFLGSVLVNEPSEATR,0.203 ± 1.5
7,LVFTMWLPKRDACPDLTTMM,0.34 ± 0.47
8,LVGSKSGVTRQRMALRWGGF,-0.285 ± 1.4
9,LVKWGCQLSVEFVRFNTGFQ,1.74 ± 0.094
10,LVLQRDIGSACVDCHGVGKA,1.17 ± 0.52
11,LVMFMNMSLRYNRGLSLVKR,-0.252 ± 0.26
12,LVNCVVGFLTLVNFWSIHQL,0.206 ± 0.79
13,LVPSTFHTF,0.149 ± 0.77
14,LVSMSYSVREDDFISLLWGV,inactive
15,LVTGSCNQWHGKW,-0.062 ± 0.39
16,LVTRLALSFAVNFLLGDSCV,0.595 ± 0.48
17,LVWLY,0.493 ± 0.68
18,LVWSGLHVGGHSWVGFTGVV,0.241 ± 0.61
19,LWEIRILLL,-0.994 ± 0.68
20,LWFQLLMLEFSRNKPIQTVG,-0.138 ± 0.64
21,LWKLLAAGVGNMCDD,-0.503 ± 0.38
22,LWNCKIVVWSFIGSVCTTGK,2.29 ± 0.19
23,LWNGIFELAYLTGVYEFRYG,2.07 ± 0.26
24,LWPEPVSRSIHSRSH,0.976 ± 0.55
25,LWSVVYIVIYHLMSNADWST,-0.252 ± 0.41

row,Substance,amyloid nucleation score
1,LWVFGCCIVRMIR,0.047 ± 0.74
2,LWYKIGFLIWSRTGTLYQGI,0.273 ± 0.3
3,LWYVAPHVTRSNFEVQGGCG,-0.249 ± 0.34
4,LYACNFFVFISRPAGMDSAS,5.29 ± 0.079
5,LYAKLQLLRNKYRVYLFVTS,-0.741 ± 0.55
6,LYEVNWVSYRMFAVGVRYVL,-0.397 ± 0.36
7,LYFMSISTMAIRSCGVGLHQ,0.235 ± 0.37
8,LYFRIGYSMLIATDVGFGDL,-2.74 ± 1.8
9,LYGGNSRFRLSSYRYGMFWN,inactive
10,LYGYSI,0.778 ± 0.41
11,LYIYTKFRFVMYVSWCVSDS,0.012 ± 0.62
12,LYMPSGNIFG,0.973 ± 0.8
13,LYNPFHIRESMRSRPLVRWV,-0.1 ± 0.32
14,LYNRIANFGPGYINLWVI,6.375 ± 0.061
15,LYNVKTGFVRQTDVG,0.106 ± 0.91
16,LYPKSFYTKYYEWYTSGLIF,0.236 ± 0.57
17,LYRVSLLGRGGNSMMCDMWL,inactive
18,LYSDPKVCHN,4.74 ± 0.065
19,LYSLGTSHEIPCLM,0.442 ± 0.42
20,LYTHNSELNIKGSKVVHIEW,0.489 ± 0.4
21,LYTITLLIALALTTEQAPPR,1.67 ± 0.28
22,LYTKFFEAMWQVWRFERTQR,2.53 ± 0.21
23,LYYDSLYCHSFLWYGSLVLS,-0.06 ± 0.38
24,MACVVRVLGVMVHLKMLVGL,-1.11 ± 1
25,MAFMLWLDYW,0.395 ± 0.32

row,Substance,amyloid nucleation score
1,MAFYSTSLSFSEGGIRCSIY,5.14 ± 0.08
2,MAGSSMTISVLYSWIP,inactive
3,MAVFSIDRVVPVVTGGCIAE,0.035 ± 0.46
4,MAVYFLGFIA,0.604 ± 0.59
5,MCFLLSYLRWLDYYSYVVVC,0.962 ± 0.42
6,MCGRSGTFSAILRDREGLNI,0.219 ± 0.65
7,MCILTRRFGLMGWNTHYKS,-0.525 ± 0.94
8,MCRVHFRNVTFCGALARSVL,-0.751 ± 0.43
9,MCVMVGLLYGVLLSSFTNNA,0.684 ± 0.23
10,MDGALSVEFSWGLLSKTRLC,-0.122 ± 0.74
11,MDGFERWGSYVTWSQLVMIR,-0.837 ± 0.98
12,MDKEESRCVELSLMSVSVMG,1.35 ± 0.79
13,MDKSTMVGIKCTMRVSRQMG,-0.158 ± 0.56
14,MDLHTACVYSKVGMTLDQPS,0.343 ± 0.39
15,MDLKTY,-0.696 ± 0.46
16,MDRALQRSWRLGLRPGEGGS,-0.455 ± 0.62
17,MDVPFLRKN,0.154 ± 0.66
18,MDWLEYHMSFCSHV,0.07 ± 0.26
19,MENAGTSVIPRRYIWTPKPV,0.923 ± 0.76
20,MEPYYVRNSCFCRIRDRNF,-0.21 ± 0.33
21,MERYCN,-0.148 ± 0.23
22,MFARLNF,3.98 ± 0.062
23,MFFVFSYSRS,1.52 ± 0.28
24,MFGGGWDAKWPPIPCLKKVD,0.308 ± 0.43
25,MFRNI,0.227 ± 0.26

row,Substance,amyloid nucleation score
1,MFSTKSH,0.543 ± 0.49
2,MFSTLH,0.178 ± 0.36
3,MFWQHQLFVESRQNSSFTSF,-0.23 ± 0.63
4,MGCKAKRAFVEFLSRMEVRP,-0.035 ± 0.22
5,MGEYSRLSARSGWLDTPVDG,-0.496 ± 0.67
6,MGFQFNTFCF,8.144 ± 0.062
7,MGGRGGTDCRASMYSSACMG,1.74 ± 0.26
8,MGGVMAVLFRIMLGVIF,inactive
9,MGHAGTLCFANNCLNM,7.483 ± 0.059
10,MGTLDI,inactive
11,MGVDYARSVW,-0.202 ± 0.76
12,MGVFRLNHSQTLRTGQSVEF,-1.18 ± 2.1
13,MGVLKWLATRLDWFKKIMCR,2.3 ± 0.13
14,MHFIRALIEFH,1.88 ± 0.2
15,MICKMNYQVRIPINFSYCLN,2.43 ± 0.15
16,MIIPD,1.14 ± 0.34
17,MILRVVCHLNVCS,6.921 ± 0.05
18,MIPKNFLGGNPLQRRESPIC,0.828 ± 0.62
19,MISGCLRVLMRAGVKHYVFM,0.369 ± 0.93
20,MIVDNHWHECYSRAS,-1.76 ± 1.4
21,MIWAEQCVMWPGACVMVIK,4.64 ± 0.09
22,MIYVGVDISV,2.24 ± 0.28
23,MKQQAQPVFVWSSAGGGCES,-0.606 ± 0.47
24,MKRASSLMINFMMPCNFYCG,0.532 ± 0.62
25,MLFDV,-0.077 ± 0.21

row,Substance,amyloid nucleation score
1,MLGKNSSCESNMEYVFRSCL,0.244 ± 0.23
2,MLHWLKLIRTIGRFIRFFRC,inactive
3,MLIKSIFIFSTLLYISMYD,0.786 ± 0.29
4,MLLEFCKCGVGSIVWCQKFA,4.94 ± 0.11
5,MLLFSSVITVMFFGTSIHDG,-0.101 ± 1.2
6,MLRTQQFSLLFEYHVHGEGG,3.75 ± 0.075
7,MLVDIGRC,-1.31 ± 1.6
8,MLVFYCNRN,2.88 ± 0.22
9,MMAIIFMCNV,3.05 ± 0.18
10,MMFSRILCNGDPQGSARWLS,inactive
11,MMIWNSNSEQVRCIIGMPWL,4.79 ± 0.085
12,MMLCSYKWVF,0.1 ± 0.24
13,MMSPR,-0.921 ± 2.4
14,MNEERVGNLIFCRDSFMSSW,-0.096 ± 0.97
15,MNKFNCRIMDDSDSALFSIA,0.486 ± 0.4
16,MNMVCS,1.15 ± 0.58
17,MNNCKGTI,-0.679 ± 0.79
18,MPCFCYTCGRVMLVRIRQTR,inactive
19,MPYLNGHYRH,inactive
20,MQMSLTDSGGVYVDGLVGYL,-0.239 ± 0.31
21,MRCGAL,0.2 ± 1.2
22,MRCKCGLYAHSYSALLGNVE,inactive
